Experiments:
Test in all cases: ELISA on denatured VLP (carbonate pH 10.6 + DTT; threshold OD>0.5)
[1] = target: T1, denatured VLPs of BK polyomavirus VP-1 protein, serotype Ia (BK virus (BKPyV), serotype Ia, UniProt P03088 1-361)
T1 construct: also called Ia denatured; linearised VP-1 protein
T1 chain: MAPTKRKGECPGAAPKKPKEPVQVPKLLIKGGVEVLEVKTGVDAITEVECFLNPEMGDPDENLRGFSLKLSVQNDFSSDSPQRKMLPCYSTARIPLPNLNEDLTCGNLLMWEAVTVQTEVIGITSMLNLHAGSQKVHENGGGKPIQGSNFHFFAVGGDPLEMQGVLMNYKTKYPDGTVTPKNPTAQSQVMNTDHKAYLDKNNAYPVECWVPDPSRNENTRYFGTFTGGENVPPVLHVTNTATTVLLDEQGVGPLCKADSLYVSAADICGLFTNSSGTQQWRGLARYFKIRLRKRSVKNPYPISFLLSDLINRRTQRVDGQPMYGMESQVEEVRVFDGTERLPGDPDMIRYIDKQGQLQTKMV
Procedure: (§1) The wells were then blocked for 1 hour at +37° C. with a PBS/SVF mixture. After dilution in a dilution buffer containing SVF, PBS and Tween® 20, the individual culture supernatants or purified antibodies were added for 1 hour at +37° C. The wells were washed four times in a row with Wash Buffer and a secondary anti-mouse peroxidase antibody was added to the 1/2000 dilution for 1 hour at +37° C. The wells were washed again four times in a row and the substrate was added for 30 minutes at room temperature. A stop solution was added and then each well was read by measuring the absorbance at 492 nm with a spectrophotometer. The value obtained for the average of the control wells (PBS in the first step) was subtracted from the optical density values obtained for each well (detection threshold: OD>0.5).

[2] = target: T2, denatured VLPs of BK polyomavirus VP-1 protein, serotype Ib2 (BK virus (BKPyV), serotype Ib2, UniProt P03088 1-362)
T2 construct: also called Ib2 denatured
T2 chain: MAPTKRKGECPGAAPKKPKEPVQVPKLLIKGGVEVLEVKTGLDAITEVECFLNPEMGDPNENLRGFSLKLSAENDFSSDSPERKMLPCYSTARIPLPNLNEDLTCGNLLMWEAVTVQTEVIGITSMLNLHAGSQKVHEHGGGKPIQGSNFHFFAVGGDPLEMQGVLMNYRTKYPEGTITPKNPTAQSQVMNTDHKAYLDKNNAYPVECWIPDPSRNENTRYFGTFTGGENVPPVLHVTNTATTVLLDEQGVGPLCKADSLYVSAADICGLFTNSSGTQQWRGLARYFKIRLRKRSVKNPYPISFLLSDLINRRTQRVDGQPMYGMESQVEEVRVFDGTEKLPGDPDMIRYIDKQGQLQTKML
Procedure: as §1

[3] = target: T3, denatured VLPs of BK polyomavirus VP-1 protein, serotype II (BK virus (BKPyV), serotype II, UniProt P14996 1-362)
T3 construct: also called II denatured
T3 chain: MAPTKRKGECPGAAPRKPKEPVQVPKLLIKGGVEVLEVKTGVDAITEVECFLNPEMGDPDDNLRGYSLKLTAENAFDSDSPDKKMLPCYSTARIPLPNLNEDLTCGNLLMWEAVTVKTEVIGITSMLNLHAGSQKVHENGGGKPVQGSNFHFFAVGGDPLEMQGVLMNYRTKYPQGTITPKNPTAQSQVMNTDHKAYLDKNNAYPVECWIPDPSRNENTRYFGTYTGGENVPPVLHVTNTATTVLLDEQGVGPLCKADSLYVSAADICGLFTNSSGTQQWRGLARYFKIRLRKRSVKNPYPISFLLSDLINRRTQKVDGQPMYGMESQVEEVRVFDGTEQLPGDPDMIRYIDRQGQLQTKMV
Procedure: as §1

B1: monoclonal antibody ‘18A2’ derived from hybridoma 18A2 (antibody, V domains shown)
VH: DVQLQESGPGLVKPSQSLSLTCSVTGYSITSGYYWNWIRQFPGNKLEWMGYISYDGSNNYNPSLKNRISITRDTSKNQFFLKLNSVTTEDTATYYCARWEGTTDYWGQGTTLTVSS
VL: not shown
notes: Mouse hybridoma antibody
OD 492 nm [1]: 3.98 OD
OD 492 nm [2]: 0.16 OD
OD 492 nm [3]: 0.63 OD
